Residue numbers refer to the chain shown, from its start. Several values for one entry are separate records, joined by “and”; a condition that tells them apart may be missing. Identical values can stand only once.
B1: 28H31S54V59D / 101V (antibody, V domains shown)
VH: EVQLVESGGGLVQPGGSLRLSCAASGYHFTSYYMNWVRQAPGKGLEWIGDINPVTGDTDYNADFKRRFTFSLDTSKSTAYLQMNSLRAEDTAVYYCTREGPSFAYWGQGTLVTVSS
VL: DIQLTQSPSSLSASVGDRVTITCRSSQTIVHSNGDTYLEWYQQKPGKAPNLLIYKVSNRFSGVPSRFSGSGSGTDFTLTISSLQPEDFATYYCFQGSHVPVTFGQGTKVEIK
notes: KCD119 TAF variant; full antibody captured on protein A
B2: 54I59D / 101V (antibody, V domains shown)
VH: B1 VH with H28T, S31D, V54I
VL: B1 VL
notes: as for B1
B3: 54V59D / 32W60W101V (antibody, V domains shown)
VH: B1 VH with H28T, S31D
VL: B1 VL with S32W, F60W
notes: as for B1
B4: 28Q31S54V59D / 101V (antibody, V domains shown)
VH: B1 VH with H28Q
VL: B1 VL
notes: as for B1
B5: 31S54I59D84T / 32W60W101V (antibody, V domains shown)
VH: B1 VH with H28T, V54I, N84T
VL: B1 VL with S32W, F60W
notes: as for B1
B6: 31S48V54V59D / 101V (antibody, V domains shown)
VH: B1 VH with H28T, I48V
VL: B1 VL
notes: as for B1
B7: 54V59D / 32D50I101V (antibody, V domains shown)
VH: B1 VH with H28T, S31D
VL: B1 VL with S32D, N50I
notes: as for B1
B8: 28K31S54V59D / 101V (antibody, V domains shown)
VH: B1 VH with H28K
VL: B1 VL
notes: as for B1
B9: 31S54I59D / 54G101V (antibody, V domains shown)
VH: B1 VH with H28T, V54I
VL: B1 VL with Y54G
notes: as for B1
B10: 31S54I59D84S / 32W60W101V (antibody, V domains shown)
VH: B1 VH with H28T, V54I, N84S
VL: B1 VL with S32W, F60W
notes: Label printed 31S54I59D845, read as 84S; full antibody captured on protein A; also called 31S54I59D845 / 32W60W101V
B11: 48V54V59D / 32W60W101V (antibody, V domains shown)
VH: B1 VH with H28T, S31D, I48V
VL: B1 VL with S32W, F60W
notes: as for B1
B12: 54I59D84T / 32W60W101V (antibody, V domains shown)
VH: B1 VH with H28T, S31D, V54I, N84T
VL: B1 VL with S32W, F60W
notes: as for B1
B13: 31S54I59D / 32W60W101V (antibody, V domains shown)
VH: B1 VH with H28T, V54I
VL: B1 VL with S32W, F60W
notes: as for B1
B14: 31S34I54I59D / 32W60W101V (antibody, V domains shown)
VH: B1 VH with H28T, M34I, V54I
VL: B1 VL with S32W, F60W
notes: as for B1
B15: 31S54I59D / 50I60W101V (antibody, V domains shown)
VH: B1 VH with H28T, V54I
VL: B1 VL with N50I, F60W
notes: as for B1
B16: 54V59D / 101V (antibody, V domains shown)
VH: B1 VH with H28T, S31D
VL: B1 VL
notes: as for B1
B17: 54I59D / 32W54S101V (antibody, V domains shown)
VH: B1 VH with H28T, S31D, V54I
VL: B1 VL with S32W, Y54S
notes: Light label printed 32W545101V, read as 32W54S101V; also called 54I59D / 32W545101V
B18: 54I59D / 50I60W101V (antibody, V domains shown)
VH: B1 VH with H28T, S31D, V54I
VL: B1 VL with N50I, F60W
notes: as for B1
B19: 31S54V59D / 32W60W101V (antibody, V domains shown)
VH: B1 VH with H28T
VL: B1 VL with S32W, F60W
notes: as for B1
B20: 28I31S54V59D / 101V (antibody, V domains shown)
VH: B1 VH with H28I
VL: B1 VL
notes: as for B1
B21: 54I59D / 32W33G60W101V (antibody, V domains shown)
VH: B1 VH with H28T, S31D, V54I
VL: B1 VL with S32W, N33G, F60W
notes: KCD119 TAF variant; same label printed in three rows
B22: 54I59D / 54G60W101 (antibody, V domains shown)
VH: B1 VH with H28T, S31D, V54I
VL: B1 VL with Y54G, F60W
B23: 34I54I59D / 32W60W101V (antibody, V domains shown)
VH: B1 VH with H28T, S31D, M34I, V54I
VL: B1 VL with S32W, F60W
notes: as for B1
B24: 54I59D / 54S60W101V (antibody, V domains shown)
VH: B1 VH with H28T, S31D, V54I
VL: B1 VL with Y54S, F60W
notes: Light label printed 54560W101V, read as 54S60W101V; also called 54I59D / 54560W101V
B25: 54I59D / 32W54S60W101V (antibody, V domains shown)
VH: B1 VH with H28T, S31D, V54I
VL: B1 VL with S32W, Y54S, F60W
notes: Light label printed 32W54560W101V, read as 32W54S60W101V; also called 54I59D / 32W54560W101V
B26: 31S54V59D / 101V (antibody, V domains shown)
VH: B1 VH with H28T
VL: B1 VL
notes: as for B1
B27: 28S31S54V59D / 101V (antibody, V domains shown)
VH: B1 VH with H28S
VL: B1 VL
notes: as for B1
B28: 54V59D / 32D60W101V (antibody, V domains shown)
VH: B1 VH with H28T, S31D
VL: B1 VL with S32D, F60W
notes: as for B1
B29: 28V31S54V59D / 101V (antibody, V domains shown)
VH: B1 VH with H28V
VL: B1 VL
notes: as for B1
B30: 54V56V / 101V (antibody, V domains shown)
VH: B1 VH with H28T, S31D, G56V, D59S
VL: B1 VL
notes: as for B1
B31: 54I59D / 32W60W101V (antibody, V domains shown)
VH: B1 VH with H28T, S31D, V54I
VL: B1 VL with S32W, F60W
notes: as for B1

Biological target: T1, serum purified human Complement Factor D (human, UniProt P00746 26-253)
T1 construct: Serum purified protein flowed over the captured antibodies; also called CFD; human CFD
T1 sequence (P00746 26-253): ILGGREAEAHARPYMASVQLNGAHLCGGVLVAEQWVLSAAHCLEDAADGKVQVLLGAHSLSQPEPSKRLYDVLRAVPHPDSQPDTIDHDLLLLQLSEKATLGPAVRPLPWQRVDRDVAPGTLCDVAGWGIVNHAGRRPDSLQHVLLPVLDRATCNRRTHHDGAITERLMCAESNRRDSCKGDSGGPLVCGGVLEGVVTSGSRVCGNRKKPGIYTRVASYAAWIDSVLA
Test: SPR Biacore, antibody on protein A chip, single cycle kinetics, 25 C;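 also: antibodies captured to roughly 70 RU on the protein A surface in HBS-EP+ running buffer, with kinetic constants derived by BIAevaluation fitting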
Protocol: (§1) Antibodies were diluted to 0.5 ug/ml in HBS-EP+ buffer and captured on a protein A chip for 25 seconds to reach approximately 70 resonance units. […] Binding kinetic information was obtained by the BIAevaluation software (GE).

| Kd | koff | kon | Binder |
| --- | --- | --- | --- |
| 0.0251 nM | 0.000167 s⁻¹ | 6.65e+06 M⁻¹ s⁻¹ | B1 |
| 0.0204 nM and 0.0267 nM and 0.00908 nM | 0.000152 s⁻¹ and 0.000154 s⁻¹ and 5.74e-05 s⁻¹ | 7.43e+06 M⁻¹ s⁻¹ and 5.78e+06 M⁻¹ s⁻¹ and 6.32e+06 M⁻¹ s⁻¹ | B2 |
| 0.00607 nM | 4.79e-05 s⁻¹ | 7.88e+06 M⁻¹ s⁻¹ | B3 |
| 0.023 nM | 0.000164 s⁻¹ | 7.15e+06 M⁻¹ s⁻¹ | B4 |
| 0.0157 nM | 6.01e-05 s⁻¹ | 3.83e+06 M⁻¹ s⁻¹ | B5 |
| 0.0169 nM | 0.000101 s⁻¹ | 5.98e+06 M⁻¹ s⁻¹ | B6 |
| 0.0197 nM | 0.00016 s⁻¹ | 8.11e+06 M⁻¹ s⁻¹ | B7 |
| 0.0224 nM | 0.000163 s⁻¹ | 7.3e+06 M⁻¹ s⁻¹ | B8 |
| 0.00689 nM | 8.25e-05 s⁻¹ | 1.2e+07 M⁻¹ s⁻¹ | B9 |
| 0.0203 nM | 7.76e-05 s⁻¹ | 3.83e+06 M⁻¹ s⁻¹ | B10 |
| 0.0159 nM | 9.5e-05 s⁻¹ | 5.96e+06 M⁻¹ s⁻¹ | B11 |
| 0.0169 nM | 8.43e-05 s⁻¹ | 4.99e+06 M⁻¹ s⁻¹ | B12 |
| 0.0165 nM | 6.3e-05 s⁻¹ | 3.83e+06 M⁻¹ s⁻¹ | B13 |
| 0.0172 nM | 5.69e-05 s⁻¹ | 3.31e+06 M⁻¹ s⁻¹ | B14 |
| 0.00774 nM | 3.98e-05 s⁻¹ | 5.14e+06 M⁻¹ s⁻¹ | B15 |
| 0.0371 nM | 0.000258 s⁻¹ | 6.94e+06 M⁻¹ s⁻¹ | B16 |

| Kd | koff | kon | Binder |
| --- | --- | --- | --- |
| 0.00948 nM | 7.29e-05 s⁻¹ | 7.69e+06 M⁻¹ s⁻¹ | B17 |
| 0.0121 nM | 6.67e-05 s⁻¹ | 5.53e+06 M⁻¹ s⁻¹ | B18 |
| 0.0158 nM | 8.84e-05 s⁻¹ | 5.58e+06 M⁻¹ s⁻¹ | B19 |
| 0.0177 nM | 0.000134 s⁻¹ | 7.59e+06 M⁻¹ s⁻¹ | B20 |
| 0.0514 nM and 0.0534 nM and 0.0778 nM | 0.0004 s⁻¹ and 0.000328 s⁻¹ and 0.000352 s⁻¹ | 7.78e+06 M⁻¹ s⁻¹ and 6.14e+06 M⁻¹ s⁻¹ and 4.53e+06 M⁻¹ s⁻¹ | B21 |
| 0.0125 nM | 8.54e-05 s⁻¹ | 6.83e+06 M⁻¹ s⁻¹ | B22 |
| 0.0211 nM | 0.000136 s⁻¹ | 6.45e+06 M⁻¹ s⁻¹ | B23 |
| 0.00985 nM | 7.08e-05 s⁻¹ | 7.19e+06 M⁻¹ s⁻¹ | B24 |
| 0.00858 nM | 5.37e-05 s⁻¹ | 6.25e+06 M⁻¹ s⁻¹ | B25 |
| 0.0188 nM and 0.0176 nM | 0.000131 s⁻¹ and 0.000101 s⁻¹ | 6.95e+06 M⁻¹ s⁻¹ and 5.71e+06 M⁻¹ s⁻¹ | B26 |
| 0.0217 nM | 0.000166 s⁻¹ | 7.64e+06 M⁻¹ s⁻¹ | B27 |
| 0.0102 nM | 0.000128 s⁻¹ | 1.25e+07 M⁻¹ s⁻¹ | B28 |
| 0.00601 nM | 4.76e-05 s⁻¹ | 7.91e+06 M⁻¹ s⁻¹ | B29 |
| 0.0645 nM | 0.000351 s⁻¹ | 5.44e+06 M⁻¹ s⁻¹ | B30 |
| – | 3.5e-05 s⁻¹ and 8.32e-05 s⁻¹ and 6.85e-05 s⁻¹ | 7.57e+06 M⁻¹ s⁻¹ and 4.91e+06 M⁻¹ s⁻¹ and 5.83e+06 M⁻¹ s⁻¹ | B31 |

Biological target: T1, serum purified human Complement Factor D
Test: SPR Biacore, antibody on protein A chip, single cycle kinetics, 37 C;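 also: antibodies captured on the protein A surface to roughly 70 RU in HBS-EP+ buffer, with rate and affinity constants fitted using BIAevaluation software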
Protocol: as §1

| Kd | koff | kon | Binder |
| --- | --- | --- | --- |
| 0.0257 nM | 0.000443 s⁻¹ | 1.72e+07 M⁻¹ s⁻¹ | B1 |
| 0.0475 nM and 0.0184 nM | 0.000437 s⁻¹ and 0.000222 s⁻¹ | 9.19e+06 M⁻¹ s⁻¹ and 1.21e+07 M⁻¹ s⁻¹ | B2 |
| 0.0757 nM | 0.00103 s⁻¹ | 1.35e+07 M⁻¹ s⁻¹ | B4 |
| 0.0288 nM | 0.000224 s⁻¹ | 7.79e+06 M⁻¹ s⁻¹ | B5 |
| 0.0274 nM | 0.00041 s⁻¹ | 1.5e+07 M⁻¹ s⁻¹ | B7 |
| 0.00931 nM | 0.000222 s⁻¹ | 2.38e+07 M⁻¹ s⁻¹ | B9 |
| 0.0235 nM | 0.000209 s⁻¹ | 8.9e+06 M⁻¹ s⁻¹ | B10 |
| 0.0212 nM | 0.000278 s⁻¹ | 1.31e+07 M⁻¹ s⁻¹ | B11 |
| 0.0258 nM | 0.000365 s⁻¹ | 1.41e+07 M⁻¹ s⁻¹ | B12 |
| 0.0343 nM | 0.000225 s⁻¹ | 6.55e+06 M⁻¹ s⁻¹ | B13 |
| 0.0312 nM | 0.000208 s⁻¹ | 6.67e+06 M⁻¹ s⁻¹ | B14 |
| 0.0276 nM | 0.000256 s⁻¹ | 9.26e+06 M⁻¹ s⁻¹ | B15 |
| 0.011 nM | 0.000155 s⁻¹ | 1.41e+07 M⁻¹ s⁻¹ | B17 |
| 0.0318 nM | 0.000329 s⁻¹ | 1.04e+07 M⁻¹ s⁻¹ | B18 |
| 0.0227 nM | 0.000293 s⁻¹ | 1.29e+07 M⁻¹ s⁻¹ | B19 |
| 0.0195 nM | 0.00039 s⁻¹ | 2e+07 M⁻¹ s⁻¹ | B20 |
| 0.105 nM and 0.0979 nM and 0.135 nM | 0.0012 s⁻¹ and 0.00148 s⁻¹ and 0.00117 s⁻¹ | 1.14e+07 M⁻¹ s⁻¹ and 1.51e+07 M⁻¹ s⁻¹ and 8.69e+06 M⁻¹ s⁻¹ | B21 |
| 0.00989 nM | 0.000118 s⁻¹ | 1.19e+07 M⁻¹ s⁻¹ | B22 |
| 0.0217 nM | 0.000279 s⁻¹ | 1.29e+07 M⁻¹ s⁻¹ | B23 |
| 0.0119 nM | 0.000148 s⁻¹ | 1.24e+07 M⁻¹ s⁻¹ | B24 |
| 0.0124 nM | 0.000136 s⁻¹ | 1.1e+07 M⁻¹ s⁻¹ | B25 |
| 0.0411 nM | 0.000373 s⁻¹ | 9.08e+06 M⁻¹ s⁻¹ | B26 |
| 0.0727 nM | 0.000918 s⁻¹ | 1.26e+07 M⁻¹ s⁻¹ | B27 |
| 0.0415 nM | 0.000371 s⁻¹ | 8.93e+06 M⁻¹ s⁻¹ | B28 |
| 0.051 nM | 0.00085 s⁻¹ | 1.66e+07 M⁻¹ s⁻¹ | B29 |
| 0.107 nM | 0.00104 s⁻¹ | 9.69e+06 M⁻¹ s⁻¹ | B30 |
| 0.0131 nM and 0.00972 nM and 0.00501 nM | – | 1.5e+07 M⁻¹ s⁻¹ and 6.86e+06 M⁻¹ s⁻¹ and 1.17e+07 M⁻¹ s⁻¹ | B31 |

Source: patent US20180334496A1 (KODIAK SCIENCES, published 2018)
